From the supplement of paper PMC9170038

System: MS2 coat protein
Assay: apparent KD of MS2 coat protein; designed switch direction (-1 OFF switch, 1 ON switch): -1; higher = weaker reporter binding
Procedure, shortened: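 Stalled E. coli RNA polymerase transcribed designed RNA switches on Illumina chips, which were then titrated with SNAP-549-labelled MS2 coat protein, doubling from 0.7 or 1.5 nM to 3 µM. Steps lasted from 0.8–1.5 h at the lowest concentration to 10–20 min at the highest. The apparent KD is each design's median over clusters of curve-fitted normalised fluorescence.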

[1] = Eterna round: R95, input ligand: FMN 200 uM
[2] = Eterna round: R95, input ligand: microRNA oligo, concentration not stated
[3] = Eterna round: R95, input ligand: none
[4] = input ligand: microRNA oligo, concentration not stated

Sequence | apparent KD of MS2 coat protein (input ligand: FMN 200 uM) [nM] | apparent KD of MS2 coat protein (input ligand: none) [nM] | apparent KD of MS2 coat protein [1] [nM] | apparent KD of MS2 coat protein [2] [nM] | apparent KD of MS2 coat protein [3] [nM] | apparent KD of MS2 coat protein [4] [nM]
AAGAAAGGUGACAUGGGUGACAUGAGGAUCACCCAUGUUACAAGCUUGUUGCUCGUCUUAUAAUUAACCCAUGUCAC [LRO Sensor-off var1-20 mod of Stov1-13-A1 by Brourd] (Eterna round: R97, puzzle: Sensor, turn-off variant 1) | 15.6 | 15.6 |  |  |  | 
UUGCUACCUUGGUGCUCUACAAGCUUUUUGCUCGUUUUAACAUGAGGAUCACCCAUGUCUAGUGGAUCUGAUCGGGU [JL ViennaUCT Isreen mod 2] (puzzle: Sensor v3, turn-off variant 2) |  |  | 91.3 | 212 | 97.9 | 
GGUCUUCAAGUCAGGAUAUCGUCUAAUCGGUCUGGCGAGAAGGGACAUGAGGAUCACCCAUGUCGUCUCAUCAG [Ex4 #15] (Eterna round: R97, puzzle: Brourd's mod of Exclusion 4) | 27.1 | 20.4 |  |  |  | 
GAUUAUGCGAGCUUUAGGGACAUGAGGAUCACCCAUGUUCGUCUUAUUGAUCUAGGUGCGCUAACAUACCUAAAUCU [JMF 49] (puzzle: Sensor v3, turn-off variant 1) |  |  | 26.2 | 34.7 | 30 | 
AUGGGUCCUUUCGGAGCGACAUGAGGAUCACCCAUGUGUGUUGAGGAUAUCCACUGCUAAGGACGGGAGAAGGCAGUGUACUGU [Ex NG3 #84] (Eterna round: R96, puzzle: Exclusion NG 3) | 36.2 | 49.4 |  |  |  | 26.7
CCAAACAGAGGAUAUGCGAAUAAAUAAAACUUUUUUUUUUAACAUGAGGAUCACCCAUGUAGAAGGCUGAAACC [Ex2 #41] (Eterna round: R97, puzzle: Exclusion 2) | 29.3 | 27.6 |  |  |  | 
AGUGUGUGGCAGGAUAUUCUAAUCGUGAGGAGGGAAGAAGGGUCUACAUGAGGAUCACCCAUGUAAGCGGUUGA [Ex6 #42] (Eterna round: R97, puzzle: Exclusion 6) | 259 | 140 |  |  |  | 
GGUGUGAGGCAGGAUAUGCAAUAAGUAAGUAAUGCAGAAGGGUCUACAUGAGGAUCACCCAUGUGUGCGGUAGA [Ex6 #2] (Eterna round: R97, puzzle: Exclusion 6) | 202 | 109 |  |  |  | 
UUGGCAGGUUUUUUGUUUGACAUGAGGAUCACCCAUGUUGCGUGGGUUGUGGGUGGGCGGUGUUUAUUUAUGGUUCU [-16.5, -38.6 kcal, A 12%] (Eterna round: R97, puzzle: Sensor, turn-off variant 1) | 43.1 | 48.4 |  |  |  | 
UAAGUUUAGGUAGGAUAUACUUUUAAUUUCUCUUUCCUUACAUGAGGAUCACCCAUGUUUACAUUGUAGAAGGACCACUAUGUU [JR_ExcNG2_Sub053] (Eterna round: R96, puzzle: Exclusion NG 2) | 17.8 | 26.4 |  |  |  | 18.3
UUUAAGGUAAUUAAGAUCACAUGAGGAUCACCCAUGUAUAUAUAGGAUAUCAGCUCGUGUAGAGCUGAGAAGGAUAUAUACAUA [ExNG3/6-C3] (Eterna round: R96, puzzle: Exclusion NG 3) | 24.9 | 542 |  |  |  | 48.3
CGUCUGUCAGGAUAUACUUACGUAGACAUGAGGAUCACCCAUGUGACGUGGGACUGGUGAGUAGAAGGGACGAACA [EX5 #75] (Eterna round: R97, puzzle: Exclusion 5) | 28 | 30.6 |  |  |  | 
GCUAGGAAUGUCAGGAUAUGCUGUUCCUUGGAACAGCAGAAGGGACAUGAGGAUCACCCAUGUGCUAACCUAGC [Mat - Exclusion 4 - JL Mod - D5] (Eterna round: R97, puzzle: Brourd's mod of Exclusion 4) | 99.2 | 24.4 |  |  |  | 
ACGGCAUAAGGAUAUGCAAGGUGCUGACUUCCUCCGUCAUUACAUGAGGAUCACCCAUGUAGAAGGUAUGUACC [Eternabot (Original) Solution 9] (Eterna round: R97, puzzle: Exclusion 2) | 18.4 | 18.5 |  |  |  | 
AUUAGUAAUAAGGAUAUCACUAGCCUCGGCUAGUGAGAAGGUAUUACAUGAGGAUCACCCAUGUGAUCAAUUAA [E6/3-A2] (Eterna round: R97, puzzle: Exclusion 6) | 287 | 474 |  |  |  | 
ACAGUGUUAGGAUAUCUGAGAGUUAGUCUCGACUAGUCGAAGGAGAAGGAACAUGAGGAUCACCCAUGUAGAUC [EX4 #77] (Eterna round: R97, puzzle: Exclusion 4) | 144 | 35.8 |  |  |  | 
AGAGCUGCCCAUGACCGCAAGCUUUUUGCUUGUCUUACCACAUGAGGAUCACCCAUGUGACAUGGGCUCCUUAUAAA [Azavees] (puzzle: Sensor v3, turn-off variant 2) |  |  | 13.9 | 9.41 | 13.3 | 
CGGCAAUCCUAGGAUAUGCUAGACGAUAGUCUAGCAGAAGGAGGAACAUGAGGAUCACCCAUGUGUCCUAGCCG [Mat - Exclusion 6 - Eli Mod - D14] (Eterna round: R97, puzzle: Exclusion 6) | 17.8 | 14.4 |  |  |  | 
GCACAUGCAGGAUAUGUAAAAUUUGACAUGAGGAUCACCCAUGUAGAUCCUGAAUUUCCUGCAGAAGGGCAUGUGC [Mat - Exclusion 5 - Eli Mod - D17] (Eterna round: R97, puzzle: Exclusion 5) | 345 | 98.8 |  |  |  | 
GCGGAGUAUGUAGGAUAUCGGUCAGUUUCUGAUCGAGAAGGACAUGAGGAUCACCCAUGUAAAUUCCUCGCUUUGUGAGGCCGC [JL ENG1 3.65] (Eterna round: R96, puzzle: Exclusion NG 1) | 21.6 | 17.1 |  |  |  | 12.8
UUUCCCUGUGUGAGGAUAUACUUGUUUGGGUUUUUGUAGAAGGCACAUGAGGAUCACCCAUGUACUCUGUCGUG [JR_BME4_Sub021] (puzzle: Brourd's mod of Exclusion 4) |  |  |  | 21.1 |  | 
UUUAAUUUAAUUAAGAUCACAUGAGGAUCACCCAUGUAAUUAUAGGAUAUCAGCUCGAAUAGAGCUGAGAAGGAUAAUUACAUA [ExNG3/5-A4] (Eterna round: R96, puzzle: Exclusion NG 3) |  |  |  |  |  | 67.6
AUUUUGUCAGGAUAUGAUUAGUAGGAUGAGAGUGCUACUACUUAGAAGGGACAUGAGGAUCACCCAUGUAUUCC [Bring Us a Shrubbery-07] (puzzle: Exclusion 4) |  |  |  | 14.7 |  | 
AUAAUAGUAGGAGGAUAUCGCAGGAUAUGGGCCUUAAAACAUAACAUGAGGAUCACCCAUGUGCACGAGAAGGCCUGGAAAAUA [Orsolavera] (Eterna round: R96, puzzle: Exclusion NG 2) | 25.7 | 18.6 |  |  |  | 11.5
AUUUUAUAUGAAGGAUAUACUUAACAUGAGGAUCACCCAUGUGGUGUUGUGAGUGAGUGAGUUUAGUAGAAGGUCAAUGAUUUU [JMF's solution 76] (Eterna round: R96, puzzle: Exclusion NG 2) | 828 | 327 |  |  |  | 527
